Legend:
human c-Met-His = target: T1, human c-Met-His (Homo sapiens, UniProt P08581); assay: ELISA binding of c-Met antibody to c-Met antigen; details: humanized antibody
T1 construct: His tag (6xHis) (C); made in house; host or cells: 293F cells (Invitrogen, Cat # R790-07); vector pEE6.4; c-Met gene template origene RC217003
Procedure: This experiment uses enzyme linked immunosorbent assay to detect affinity of c-Met antibody (including supermatant of hybridonma or recombinant expressed monoclonal antibodies) to c-Met antigen in vitro.
Experimental procedures: Coating buffer (PBS; Hyclone, Cat No.: SH30256.01B) was used to dilute antigen (human c-Met-His, example 1) to 2 μg/mL, which was added to a 96-well microplate at 100 μL/well (Costar 9018, Cat No.:03113024) and incubated overnight at 4° C. […] The plate was read with plate reader at 450 nm.
Murine anti-human c-Met monoclonal cell lines were obtained by immunizing mice, fusion of spleen cells, and screening of hybridomas. […] After the first booster immunization, mice serum was collected during 7 to 10 days after each booster immunization, and the titer was detected by ELISA (Methods were described in Example 2).
After immunization, mice with a serum titer higher than 1:10^5 were selected for cell fusion. Mouse B-cells and myeloma cells (SP2/0, ATCC number:CRL-1581™) were prepared respectively in aseptic conditions and counted. […] The next day, positive clones were detected by ELISA (see Methods in Example 2).

[1] = Biophysical stability: deamination by LC-MS; format: physicochemical; details: 4° C., 3.5 months
Procedure: To evaluate the biophysical stability of the anti c-Met antibodies of the invention, such as the presence of glycosylation and deamination sites and stability, LC-MS analysis was used.
The molecular weight of the heavy and light chains was directly detected by LC-MS to analyze glycosylation. Deamination was analyzed by LC-MS at 4° C. for long time (at least 3 months), or at 40° C. for 21 days under an accelerated condition. Samples treated with different conditions were diluted to 2 mg/mL with pH 7.2 Tris-HCl; final concentrations of 10 mM of TCEP and 6M of urea (AMRESCO, Cat #0378)3 were added, then the samples were incubated for 20 minutes at 37° C. IAA (Sigma-Aldrich, Cat # I1149) with a final concentration of 20 mM was added and was incubated for 15 minutes in darkness to protect the sulfhydryl group. The pH of the sample was adjusted by dilution with Tris-HCl, pH 7.2, and protease (Sigma-Aldrich, Cat # T6567) was added at a ratio by weight of 10:1 (protein: enzyme). The samples were incubated at 37° C. for 25 minutes, and then formic acid with a final concentration of 0.1% (Fluca, Cat #94318) was added to terminate the reactions. Samples were centrifuged and analyzed by LC-MS.
BiopharmaLynx was used to analyze the presence of deamination. […] Peak area was obtained by integration, and the percentages of deamination and oxidation product were calculated.

T1 sequence (P08581 with tags, fused parts or gaps limits assumed): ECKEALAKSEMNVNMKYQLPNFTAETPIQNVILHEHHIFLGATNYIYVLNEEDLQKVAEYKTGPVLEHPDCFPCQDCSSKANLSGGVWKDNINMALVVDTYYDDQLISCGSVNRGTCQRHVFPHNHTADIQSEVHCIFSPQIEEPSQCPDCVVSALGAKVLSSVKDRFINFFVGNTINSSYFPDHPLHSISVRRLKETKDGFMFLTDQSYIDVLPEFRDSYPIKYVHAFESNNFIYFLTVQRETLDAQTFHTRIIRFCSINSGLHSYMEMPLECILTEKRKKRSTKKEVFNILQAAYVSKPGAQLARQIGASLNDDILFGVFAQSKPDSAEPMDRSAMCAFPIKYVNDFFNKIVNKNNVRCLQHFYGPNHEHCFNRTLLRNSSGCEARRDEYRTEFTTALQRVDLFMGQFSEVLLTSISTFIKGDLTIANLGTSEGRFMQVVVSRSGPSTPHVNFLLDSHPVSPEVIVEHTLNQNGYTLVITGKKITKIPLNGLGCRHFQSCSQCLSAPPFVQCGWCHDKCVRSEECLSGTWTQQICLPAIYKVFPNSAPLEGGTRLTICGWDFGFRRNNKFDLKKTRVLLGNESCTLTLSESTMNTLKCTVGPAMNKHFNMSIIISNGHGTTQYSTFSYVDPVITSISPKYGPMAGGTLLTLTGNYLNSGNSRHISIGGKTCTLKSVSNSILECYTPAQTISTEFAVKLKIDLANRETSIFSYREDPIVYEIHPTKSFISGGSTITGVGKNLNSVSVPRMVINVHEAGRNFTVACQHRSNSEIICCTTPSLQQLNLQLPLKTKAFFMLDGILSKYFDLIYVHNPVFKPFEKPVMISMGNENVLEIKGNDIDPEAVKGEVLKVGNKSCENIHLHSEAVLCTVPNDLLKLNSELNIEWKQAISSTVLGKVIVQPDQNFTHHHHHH

B1: Ab-9 (antibody)
heavy: QVTLKESGPVLVKPTETLTLTCTVSGFSLPNYGVHWVRQPPGKALEWLAVIWSGGSTNYAAAFVSRLRISKDTSKSQVVFTMNNMDPVDTATYYCARNHDNPYNYAMDYWGQGTTVTVSSASTKGPSVFPLAPCSRSTSESTAALGCLVKDYFPEPVTVSWNSGALTSGVHTFPAVLQSSGLYSLSSVVTVPSSNFGTQTYTCNVDHKPSNTKVDKTVERKCCVECPPCPAPPVAGPSVFLFPPKPKDTLMISRTPEVTCVVVDVSHEDPEVQFNWYVDGVEVHNAKTKPREEQFNSTFRVVSVLTVVHQDWLNGKEYKCKVSNKGLPAPIEKTISKTKGQPREPQVYTLPPSREEMTKNQVSLTCLVKGFYPSDIAVEWESNGQPENNYKTTPPMLDSDGSFFLYSKLTVDKSRWQQGNVFSCSVMHEALHNHYTQKSLSLSPGK
light: DIVLTQSPASLAVSPGQRATITCRANKSVSTSTYNYLHWYQQKPGQPPKLLIYLASNLASGVPARFSGSGSGTDFTLTINPVEANDTANYYCQHSRDLPPTFGQGTKLEIKRTVAAPSVFIFPPSDEQLKSGTASVVCLLNNFYPREAKVQWKVDNALQSGNSQESVTEQDSKDSTYSLSSTLTLSKADYEKHKVYACEVTHQGLSSPVTKSFNRGEC
EC50 (human c-Met-His): 0.13 nM
Analysis of deamination: percentage of deaminated molecules [1]: 0.66%
